Measured values taken from article doi:10.1101/2023.09.28.559900.

Biological target: mouse PIEZO1-S2472E mutant (mouse) (UniProt E2JF22)
Assay: cryo-EM structure

## mouse PIEZO1-S2472E mutant, E2JF22 1-2547
  stoichiometry N: 3
